B1: mature human Neurturin secreted from cells transfected with the dpro-NTN construct (deltapro102NTN) (ligand)
chain: ARLGARPCGLRELEVRVSELGLGYASDETVLFRYCAGACEAAARVYDLGLRRLRQRRRLRRERVRAQPCCRPTAYEDEVSFLDAHSRYHTVHELSARECACV
B2: mature human Neurturin secreted from cells transfected with the IgSP-NTN construct (IgSP-102NTN) (ligand)
chain: B1 chain

What was measured:
[1] = target: GFRα2/Fc fusion protein (R&D Systems) (human); test: GFRα2 ELISA (GFRα2/Fc on anti-Fc plate, Ret-AP detection) on conditioned medium of transfected HEK293 cells; reference is medium of wt NTN transfected cells
[2] = target: GFRα2/Fc fusion protein (R&D Systems) (human); test: GFRα2 ELISA (GFRα2/Fc on anti-Fc plate, Ret-AP detection) on conditioned medium of transfected HiB5 cells; reference is medium of wt NTN transfected cells
[3] = target: GFRα2/Fc fusion protein (R&D Systems) (human); test: GFRα2 ELISA (GFRα2/Fc on anti-Fc plate, Ret-AP detection) on conditioned medium of transfected CHO cells; reference is medium of wt NTN transfected cells
[4] = target: GFRα2/Fc fusion protein (R&D Systems) (human); test: GFRα2 ELISA (GFRα2/Fc on anti-Fc plate, Ret-AP detection) on conditioned medium of transfected ARPE-19 cells; reference is medium of wt NTN transfected cells

| Binder | fold higher NTN binding (relative GFRα2 binding activity, wt construct set to 1) [1] [fold] | fold higher NTN binding (relative GFRα2 binding activity, wt construct set to 1) [2] [fold] | fold higher NTN binding (relative GFRα2 binding activity, wt construct set to 1) [3] [fold] | fold higher NTN binding (relative GFRα2 binding activity, wt construct set to 1) [4] [fold] |
| --- | --- | --- | --- | --- |
| B1 | 90 | 7.5 | 4.1 | 117 |
| B2 | 278 | 162 | 66 | 771 |

— patent EP2210617A1
